Laboratory results as given in US20220064301A1 (XILIO DEVELOPMENT, published 2022).
Like-named read-outs stand apart in the source and are kept apart here. Values belong to the binder of their own block, whether it stands above or below them.

Assays:
[1] = biological target: T1, FcγRIIIa on Jurkat effector cells (FcγRIIIa reporter bioassay); test: cell-based or functional assay
[2] = biological target: T2, human CTLA4-Fc (R&D #7268-CT) (human, UniProt P16410 36-162); test: huCTLA4-Fc binding ELISA (luminescence)
T2 construct: Bought reagent coated on ELISA plates; also called human CTLA-Fc; not shown: Fc part of the bought fusion; not described
T2 sequence (P16410 36-162 limits assumed): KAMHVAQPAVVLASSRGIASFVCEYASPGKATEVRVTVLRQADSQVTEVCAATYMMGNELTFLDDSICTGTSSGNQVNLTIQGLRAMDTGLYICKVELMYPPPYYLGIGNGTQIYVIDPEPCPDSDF
Description: All ELISA were performed in a manner substantially similar to the description below or generally consistent with methods known in the art. Polystyrene 96-well microplates (Fisher #07-200-591) were coated with 1 μg/mL of human CTLA4-Fc (R&D #7268-CT) per well and stored overnight at 4° C. Plates were washed with 0.05% Tween in TBS (TBS-T), blocked with 1% BSA (Sigma Aldrich #B4287-25G), and washed with TBS-T. Serial dilutions of samples containing anti-CTLA4 antibodies described below were made in assay buffer (PBS+0.05% Tween+1% BSA), added to plate, and shaken orbitally at 100 RPM at room temperature for one hour. After washing with TBS-T, anti-human Kappa light chain [clone: SB81a]-HRP (Abcam #ab79115) diluted to 1:8000 in assay buffer was applied to the wells and shaken at room temperature for one hour. Plates were washed with TBS-T, HRP substrate (Super Signal Pico Chemiluminescent Substrate, Thermo #37069) was applied to plate, and luminescence was recorded using a spectrophotometer (BioTek). Data was analyzed with GraphPad Prism.

[3] = biological target: T1, FcγRIIIa on Jurkat effector cells …; test: cell-based or functional assay; remark: listed apart in the source
[4] = biological target: T1, FcγRIIIa on Jurkat effector cells …; test: cell-based or functional assay; remark: listed apart in the source
[5] = biological target: T3, rhCTLA4-Fc (recombinant human CTLA4-Fc) (human, UniProt P16410 36-162, limits assumed); test: SPR, channel Ch1
T3 construct: Used in SPR with the Fabs; not shown: Fc part; not described
T3 sequence (P16410 36-162 limits assumed): as above
Description: (§1) All Surface Plasmon Resonance (SPR) analysis were performed in a manner substantially similar to the description below or generally consistent with methods known in the art. SPR was performed on certain antibodies to assess binding between the antibody, or fragment thereof, and a target protein, such as human CTLA4 (huCTLA4), cynomolgus CTLA4 (cynoCTLA4), or FcγRIIIa (CD16a). […] SPR analysis was performed on a GE Biacore T200 instrument at 37° C. The antibody and isotype control (reference channel) were coupled at 100 RU immobilization level to CM5 chip (GE Healthcare). Peptides were synthesized and diluted into HBS-EP+ running buffer (GE Healthcare). The binding data were analyzed using Biacore Evaluation Software, version 3.0.

[6] = biological target: T4, cynoCTLA4-Fc (cynomolgus, UniProt G7PL88 36-161); test: SPR, channel Ch1
T4 construct: also called cynomolgus CTLA4-Fc
T4 sequence (G7PL88 entry or part of it limits assumed): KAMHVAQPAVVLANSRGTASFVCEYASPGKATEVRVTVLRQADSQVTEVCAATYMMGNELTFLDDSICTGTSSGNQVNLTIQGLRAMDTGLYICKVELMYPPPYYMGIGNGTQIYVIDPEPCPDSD
Description: as §1

[7] = biological target: T3, rhCTLA4-Fc (recombinant human CTLA4-Fc); test: SPR, channel Ch2
Description: as §1

[8] = biological target: T4, cynoCTLA4-Fc; test: SPR, channel Ch2
Description: as §1

[9] = biological target: T3, rhCTLA4-Fc (recombinant human CTLA4-Fc); test: SPR, average of three channels
Description: as §1

[10] = biological target: T4, cynoCTLA4-Fc; test: SPR, average of three channels
Description: as §1

[11] = biological target: T3, rhCTLA4-Fc (recombinant human CTLA4-Fc); test: SPR, channel Ch3
Description: as §1

[12] = biological target: T4, cynoCTLA4-Fc; test: SPR, channel Ch3
Description: as §1

[13] = biological target: T5, human CTLA4 (huCTLA4) (human, UniProt P16410 36-161, limits assumed); test: SPR, Biacore T200, 37 C; reference ipilimumab
T5 sequence (P16410 36-161 limits assumed): as the sequence (G7PL88 entry or part of it limits assumed) above, with N14S, T18I, M106L counted along it
Description: as §1

[14] = biological target: T5, human CTLA4 (huCTLA4); test: SPR (Biacore), fit of the sensorgrams of FIG. 2A
Description: as §1

[15] = biological target: T5, human CTLA4 (huCTLA4); test: SPR, Biacore T200, 37 C
Description: as §1

[16] = biological target: cynomolgus CTLA4 (cynoCTLA4) (cynomolgus, UniProt G7PL88 36-161); test: SPR, Biacore T200, 37 C
cynomolgus CTLA4 (cynoCTLA4), sequence (G7PL88 entry or part of it limits assumed): as the sequence (G7PL88 entry or part of it limits assumed) above
Description: as §1

T1 sequence (P08637 whole entry): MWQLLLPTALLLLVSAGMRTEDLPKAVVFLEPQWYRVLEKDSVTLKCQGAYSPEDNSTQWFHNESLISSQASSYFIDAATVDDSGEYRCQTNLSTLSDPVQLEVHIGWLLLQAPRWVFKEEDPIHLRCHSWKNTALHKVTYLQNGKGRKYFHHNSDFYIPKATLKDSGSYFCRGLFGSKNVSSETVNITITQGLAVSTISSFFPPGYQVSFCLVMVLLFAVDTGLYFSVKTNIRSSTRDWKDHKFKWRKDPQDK

- EC50 of reporter activation (RLU), ADCC FcγRIIIa reporter bioassay with CTLA4 target cells [4]: 0.0177 ng/mL
- EC50 [2]: 0.36 nM
- EC50 of reporter activation (RLU), ADCC FcγRIIIa reporter bioassay with CTLA4 target cells [3]: 0.0177 ng/mL
B4: Antibody 2-aFuc (afucosylated version of Antibody 2) (antibody, V domains shown)
VH: QVQLVQSGAEVKKPGSSVKVSCKASGYTFTNYFMNWVRQAPGQGLEWMGRVDPEQGRADYAEKFKKRVTITADKSTSTAYMELSSLRSEDTAVYYCARRAMDNYGFAYWGQGTLVTVSSA
VL: EIVLTQSPDFQSVTPKEKVTITCSANSALSYMYWYQQKPDQSPKLWVHGTSNLASGVPSRFSGSGSGTDFTLTINSLEAEDAATYYCHHWSNTQWTFGGGTKVEIKR
modifications: afucosylated Fc glycan
notes: Afucosylated full antibody

- Kd [5]: 0.00453 nM
- koff [5]: 1.63e-06 s⁻¹
- kon [5]: 361000 M⁻¹ s⁻¹
- Kd [6]: 0.623 nM
- koff [6]: 0.000226 s⁻¹
- kon [6]: 363000 M⁻¹ s⁻¹
- Kd [7]: 0.00151 nM
- koff [7]: 5.19e-07 s⁻¹
- kon [7]: 345000 M⁻¹ s⁻¹
- Kd [8]: 0.794 nM
- koff [8]: 0.000229 s⁻¹
- kon [8]: 289000 M⁻¹ s⁻¹
- Kd [9]: 0.00386 nM
- Kd [10]: 0.779 nM
- Kd [11]: 0.00555 nM
- koff [11]: 1.84e-06 s⁻¹
- kon [11]: 331000 M⁻¹ s⁻¹
- Kd [12]: 0.92 nM
- koff [12]: 0.000234 s⁻¹
- kon [12]: 254000 M⁻¹ s⁻¹
B5: Antibody 2-Fab (a Fab of Antibody 2) (Fab, V domains shown)
VH: QVQLVQSGAEVKKPGSSVKVSCKASGYTFTNYFMNWVRQAPGQGLEWMGRVDPEQGRADYAEKFKKRVTITADKSTSTAYMELSSLRSEDTAVYYCARRAMDNYGFAYWGQGTLVTVSS
VL: EIVLTQSPDFQSVTPKEKVTITCSANSALSYMYWYQQKPDQSPKLWVHGTSNLASGVPSRFSGSGSGTDFTLTINSLEAEDAATYYCHHWSNTQWTFGGGTKVEIKR
notes: Fab

- fold greater binding affinity than ipilimumab (by KD) [13]: ~18 fold
- koff [14]: 3.33e-05 s⁻¹
- kon [14]: 366000 M⁻¹ s⁻¹
- Kd [15]: 0.091 nM
- Kd [16]: 0.131 nM
B7: Antibody 2-6 (a version of Antibody 2 having a S239D mutation, an I332E mutation in the Fc region) (antibody)
VH: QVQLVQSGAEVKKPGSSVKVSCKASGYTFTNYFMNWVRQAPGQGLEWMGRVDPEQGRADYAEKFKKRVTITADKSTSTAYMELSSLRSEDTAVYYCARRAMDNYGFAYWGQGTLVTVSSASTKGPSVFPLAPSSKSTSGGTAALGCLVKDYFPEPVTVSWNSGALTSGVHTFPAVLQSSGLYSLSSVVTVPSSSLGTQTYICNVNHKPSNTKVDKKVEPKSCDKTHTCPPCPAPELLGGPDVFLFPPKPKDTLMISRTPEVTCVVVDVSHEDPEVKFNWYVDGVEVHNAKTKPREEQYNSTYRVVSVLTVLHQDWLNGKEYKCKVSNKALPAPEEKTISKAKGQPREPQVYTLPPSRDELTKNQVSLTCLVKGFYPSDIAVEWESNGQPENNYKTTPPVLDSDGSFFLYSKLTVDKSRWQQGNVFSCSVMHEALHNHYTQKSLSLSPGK
VL: EIVLTQSPDFQSVTPKEKVTITCSANSALSYMYWYQQKPDQSPKLWVHGTSNLASGVPSRFSGSGSGTDFTLTINSLEAEDAATYYCHHWSNTQWTFGGGTKVEIKRTVAAPSVFIFPPSDEQLKSGTASVVCLLNNFYPREAKVQWKVDNALQSGNSQESVTEQDSKDSTYSLSSTLTLSKADYEKHKVYACEVTHQGLSSPVTKSFNRGEC
notes: copies: 2 + 2

Further lines, the binder ahead of its results:

B1: Antibody 1-1 (version of humanized anti-CTLA4 Antibody 1 having a wild-type Fc region) (antibody, V domains shown)
VH: QVQLQESGPGLVKPSETLSLTCSVTYHTITSGYDWTWIRKPPGKGMEWIGYISYSGNTNYNPSLKSRVTISRDTSKNQFFLKLSSVTAADTAVYYCASMMVPHYYVMDAWGQGTLVTVSSA
VL: DIVMTQTPLSLSVTPGQPASISCRSSQSLLNSDGNTYLYWYLQKPGQSPQLLIYLVSKLGSGVPNRFSGSGSGTDFTLKISRVEAEDVGVYYCVQGTHDPWTFGGGTKVEIKR
notes: VL 25 / VH 26 are inferred from the parallel a)/b) order of the embodiments and because 30/31 go with the CDRs of Antibody 2; Full antibody with wild-type Fc
- EC50 of reporter activation (RLU), ADCC FcγRIIIa reporter bioassay with CTLA4 target cells [1]: 1.05 ng/mL
- EC50 [2]: 0.41 nM

B2: Antibody 1-2 (version of Antibody 1 having a S239D mutation and an I332E mutation in the Fc region) (antibody, V domains shown)
VH: QVQLQESGPGLVKPSETLSLTCSVTYHTITSGYDWTWIRKPPGKGMEWIGYISYSGNTNYNPSLKSRVTISRDTSKNQFFLKLSSVTAADTAVYYCASMMVPHYYVMDAWGQGTLVTVSSA
VL: DIVMTQTPLSLSVTPGQPASISCRSSQSLLNSDGNTYLYWYLQKPGQSPQLLIYLVSKLGSGVPNRFSGSGSGTDFTLKISRVEAEDVGVYYCVQGTHDPWTFGGGTKVEIKR
notes: Variable domains inferred as for Antibody 1-1; Full antibody with S239D and I332E in the Fc region
- EC50 of reporter activation (RLU), ADCC FcγRIIIa reporter bioassay with CTLA4 target cells [1]: 0.327 ng/mL
- EC50 [2]: 0.56 nM

B3: Antibody 1-aFuc (afucosylated version of Antibody 1) (antibody, V domains shown)
VH: QVQLQESGPGLVKPSETLSLTCSVTYHTITSGYDWTWIRKPPGKGMEWIGYISYSGNTNYNPSLKSRVTISRDTSKNQFFLKLSSVTAADTAVYYCASMMVPHYYVMDAWGQGTLVTVSSA
VL: DIVMTQTPLSLSVTPGQPASISCRSSQSLLNSDGNTYLYWYLQKPGQSPQLLIYLVSKLGSGVPNRFSGSGSGTDFTLKISRVEAEDVGVYYCVQGTHDPWTFGGGTKVEIKR
modifications: afucosylated Fc glycan
notes: Variable domains inferred as for Antibody 1-1; Afucosylated full antibody
- EC50 of reporter activation (RLU), ADCC FcγRIIIa reporter bioassay with CTLA4 target cells [1]: 0.163 ng/mL
- EC50 [2]: 0.41 nM
- EC50 of reporter activation (RLU), ADCC FcγRIIIa reporter bioassay with CTLA4 target cells [3]: 0.163 ng/mL

B6: Antibody 2-1 (version of humanized anti-CTLA4 Antibody 2 having a wild-type Fc region) (antibody)
VH: not shown
VL: EIVLTQSPDFQSVTPKEKVTITCSANSALSYMYWYQQKPDQSPKLWVHGTSNLASGVPSRFSGSGSGTDFTLTINSLEAEDAATYYCHHWSNTQWTFGGGTKVEIKRTVAAPSVFIFPPSDEQLKSGTASVVCLLNNFYPREAKVQWKVDNALQSGNSQESVTEQDSKDSTYSLSSTLTLSKADYEKHKVYACEVTHQGLSSPVTKSFNRGEC
notes: Full antibody with wild-type Fc; copies: 2 + 2
- EC50 [2]: 0.33 nM
